Assay results: paper PMC8883962

Key:
[1] = biological target: Streptococcal Protein G (SpG) (groups C and G of Streptococcal bacteria) (UniProt P06654); assay: BLI
[2] = biological target: Staphylococcal Protein A (SpA) (Staphylococcus aureus) (UniProt P38507); assay: BLI

Substance | Kd [1] [nM] | Kd [2] [nM]
Trastuzumab Vκ2–VH3 IgG1 (from UniProt P01857) | 0.29 | 0.24
Pertuzumab Vκ5–VH7 IgG1 (from UniProt P01857) | 0.32 | –
Pertuzumab Vκ6–VH4 IgG1 (from UniProt P01857) | 0.27 | 0.81
Trastuzumab Vκ6–VH4 IgG1 (from UniProt P01857) | 0.36 | –
Pertuzumab Vκ2–VH7 IgG1 (from UniProt P01857) | 0.36 | –
Trastuzumab Vκ2–VH7 IgG1 (from UniProt P01857) | 0.23 | 0.53
Pertuzumab Vκ6–VH5 IgG1 (from UniProt P01857) | 0.26 | 1.26
Trastuzumab Vκ2–VH1 IgG1 (from UniProt P01857) | 0.39 | –
Pertuzumab Vκ2–VH2 IgG1 (from UniProt P01857) | 0.36 | 1.82
Trastuzumab Vκ6–VH1 IgG1 (from UniProt P01857) | 0.32 | –
Pertuzumab Vκ2–VH6 IgG1 (from UniProt P01857) | 0.32 | 1.55
Trastuzumab Vκ2–VH2 IgG1 (from UniProt P01857) | 0.69 | 1.46
Pertuzumab Vκ5–VH3 IgG1 (from UniProt P01857) | 0.34 | 0.94
Trastuzumab Vκ6–VH5 IgG1 (from UniProt P01857) | – | 0.84
Pertuzumab Vκ6–VH3 IgG1 (from UniProt P01857) | 0.28 | 0.41
Pertuzumab Vκ2–VH4 IgG1 (from UniProt P01857) | 0.25 | 1.57
Trastuzumab Vκ6–VH7 IgG1 (from UniProt P01857) | 0.3 | 0.6
Trastuzumab Vκ6–VH6 IgG1 (from UniProt P01857) | 0.51 | 1.78
Pertuzumab Vκ2–VH3 IgG1 (from UniProt P01857) | 0.38 | 0.76
Pertuzumab Vκ2–VH5 IgG1 (from UniProt P01857) | 0.3 | 1.62
Trastuzumab Vκ2–VH6 IgG1 (from UniProt P01857) | – | 1.79
Trastuzumab Vκ5–VH3 IgG1 (from UniProt P01857) | 0.32 | –
Pertuzumab Vκ6–VH2 IgG1 (from UniProt P01857) | 0.31 | 0.79
Trastuzumab Vκ2–VH5 IgG1 (from UniProt P01857) | 0.27 | 1.11
Trastuzumab Vκ6–VH3 IgG1 (from UniProt P01857) | 0.27 | 0.31
Pertuzumab Vκ6–VH7 IgG1 (from UniProt P01857) | 0.28 | 0.98
Trastuzumab Vκ2–VH4 IgG1 (from UniProt P01857) | 0.28 | 1.29
Pertuzumab Vκ6–VH1 IgG1 (from UniProt P01857) | 0.29 | 0.94
